Reference: the supplement of paper PMC9170038

System: MS2 coat protein
Assay: apparent KD of MS2 coat protein; designed switch direction (-1 OFF switch, 1 ON switch): -1; higher = weaker reporter binding
Method in brief: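 Three titration conditions were used: no input, 200 uM small-molecule ligand, and an oligonucleotide input. In each, SNAP-549-labelled MS2 coat protein was raised from 0.7 or 1.5 nM, doubling, to 3 µM over designed RNA switches transcribed on Illumina chips by stalled E. coli RNA polymerase. Curve fits of normalised cluster fluorescence gave values whose per-design median over clusters is the apparent KD.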

[1] = input ligand: microRNA oligo, concentration not stated
[2] = Eterna round: R95, input ligand: FMN 200 uM
[3] = Eterna round: R95, input ligand: microRNA oligo, concentration not stated
[4] = Eterna round: R95, input ligand: none

Sequence | apparent KD of MS2 coat protein (input ligand: FMN 200 uM) | apparent KD of MS2 coat protein (input ligand: none) | apparent KD of MS2 coat protein [1] | apparent KD of MS2 coat protein [2] | apparent KD of MS2 coat protein [3] | apparent KD of MS2 coat protein [4]
GGGCCUCAUGUGAGGAUAUUGGAUGAGGUGCGAGACGAGAAGGCACAUGAGGAUCACCCAUGUAACUAACCAAA [Bimaen] (Eterna round: R97, puzzle: Brourd's mod of Exclusion 4) | 34.8 nM | 85 nM |  |  |  | 
GGGCUCACGGUCAGGAUAUGUAAAACGUAAGUAUUAUAGAAGGGACAUGAGGAUCACCCAUGUGUGAUGAGCGC [Eternabot (L1) Solution 37] (Eterna round: R97, puzzle: Brourd's mod of Exclusion 4) | 323 nM | 124 nM |  |  |  | 
GGGCUCGGUGUGAGGAUAUGCUCGGGUAAACUCGGGCAGAAGGCACAUGAGGAUCACCCAUGUAAGUCGGGCUC [-28.5, -27.4 kcal, A 23%, 4bis-4] (Eterna round: R97, puzzle: Brourd's mod of Exclusion 4) | 18.6 nM | 18 nM |  |  |  | 
GGGCUGCGACACAGCCCAACAAAACAUGAGGAUCACCCAUGUCAGGAUAUACCGAUGCAGCAUCUGUAGAAGGGACAGAUCCAA [Usorxe] (Eterna round: R96, puzzle: Exclusion NG 3) | 120 nM | 66.3 nM | 88.1 nM |  |  | 
GGGUGACAUGAGGAUCACCCAUGUCAGGAUAUGGGCCCGGGCCCGAAAGGGUUUGGGCCCAGAAGGGACUGCCC [-44.5, -43.5 kcal, 22%A (-3 GC series)] (Eterna round: R97, puzzle: Exclusion 1) | 145 nM | 50.3 nM |  |  |  | 
GGUAACAUGAGGAUCACCCAUGUGAUACGUUACAUAUAAACCGAGGAUAUACCCUCAGAACGAGGGUAGAAGGUGGGACGACAC [Eternabot solution 8] (Eterna round: R96, puzzle: Exclusion NG 3) | 95.8 nM | 102 nM | 51.6 nM |  |  | 
GGUACUAACACGAGAGUGUUAGUACUAUAAGCUUGUGUUACAUGAGGAUCACCCAUGUCCUCAUAAGCUCGUCUUAU [Mat - Sensor v3 - Turn-off var 2 - D76] (puzzle: Sensor v3, turn-off variant 2) |  |  |  | 137 nM | 89.6 nM | 156 nM
GGUACUAUCACCUGAGUGGUAGUGCAACAAGCUUGUGAUACAUGAGGAUCACCCAUGUCCUCAUUUGCUCGUCUUAU [JL-sv3-2.25 JL mod] (Eterna round: R96, puzzle: Sensor v3, turn-off variant 2) | 237 nM | 245 nM | 858 nM |  |  | 
GGUACUAUCACCUGAGUGGUAGUGCAACAAGCUUGUGAUACAUGAGGAUCACCCAUGUCCUCAUUUGCUCGUCUUAU [JL-sv3-2.25 JL mod] (puzzle: Sensor v3, turn-off variant 2) |  |  |  | 209 nM | 1070 nM | 217 nM
GGUAGAGUGGUAGGAUAUCCGACUGAAACAGACGGAGAAGGACCACAGUCACUGGGUCCAAAUAUAAUAAACAAUAAAUCUACC [pwkr exNG1 F6.1] (Eterna round: R96, puzzle: Exclusion NG 1) | 307 nM | 331 nM | 212 nM |  |  | 
GGUAUGCAGGCUUUAGGUAACAUGAGGAUCACCCAUGUAGCAGGUCGUAACCAGGUCAUUGGUUCUCAACGCUCGUU [Eternabot (L2) Solution 46] (Eterna round: R97, puzzle: Sensor, turn-off variant 1) | 31.4 nM | 34.4 nM |  |  |  | 
GGUCAAGAACAGAACCGCGCUGCCCUUGACCGCUCAUUUACAUGAGGAUCACCCAUGUUUUUUGCUUGUCUUGUUAC [Qugeon] (puzzle: Sensor v3, turn-off variant 2) |  |  |  | 16.2 nM | 89.6 nM | 17.3 nM
GGUCAGAUGGUAGGAUAUCCAUAUCGAGUGACCCUUUCAUAACAUGAGGAUCACCCAUGUCGGUGGGAGAAGGGCCGUAUGGCG [salish99_ExNG02_R04_022] (Eterna round: R96, puzzle: Exclusion NG 2) | 69.8 nM | 51.3 nM | 34.9 nM |  |  | 
GGUCGACAUGAGGAUCACCCAUGUUAGGAUAUUAGCCAAUGGUCUCGUUAUGAGUCAUUAAGAAGGAACAUGCU [Eternabot (L1) Solution 37] (Eterna round: R97, puzzle: Exclusion 1) | 18 nM | 14.9 nM |  |  |  | 
GGUCGUAGACAGGAUAUGCGGCAAAUAAAUAAAGCAGAAGGGUCUACUUGAGGAUCACCCAAGUGGGCGGUUAA [jl-ex6-4.18 ViennaUCT mod] (Eterna round: R97, puzzle: Exclusion 6) | 103 nM | 17.7 nM |  |  |  | 
GGUCUGCGAGGAUAUACAUGAGGAUCACCCAUGUGAGAGUUACUAGUGAGGUCGAUUGGUAGAAGGCGCGGACG [JL-ex3-2.04 salish99 mod] (puzzle: Exclusion 3) |  |  |  | 19 nM | 103 nM | 154 nM
GGUGAAGCAGGAUAUGUACCAAUAUACAUGAGGAUCACCCAUGUCAUGUAGGAACUGCGUAUAGAAGGGCUUCACC [Exclusion 5 (FMN-MS2 slide v.7)] (Eterna round: R97, puzzle: Exclusion 5) | 123 nM | 55 nM |  |  |  | 

Sequence | apparent KD of MS2 coat protein (input ligand: FMN 200 uM) | apparent KD of MS2 coat protein (input ligand: none) | apparent KD of MS2 coat protein [1] | apparent KD of MS2 coat protein [2] | apparent KD of MS2 coat protein [3] | apparent KD of MS2 coat protein [4]
GGUGCGUAUGUGAGGAUAUGCUGGUCCUUGGAUCAGCAGAAGGCACAUGAGGAUCACCCAUGUGGUGUCGUACU [salish99_Bmod_Ex4_013] (puzzle: Brourd's mod of Exclusion 4) |  |  |  |  | 266 nM | 
GGUGCGUAUGUGAGGAUAUGCUGGUCCUUGGGUCGGCAGAAGGCACAUGAGGAUCACCCAUGUGGUGUCGUUCC [salish99_Bmod_ex4_101] (Eterna round: R96, puzzle: Brourd's mod of Exclusion 4) | 378 nM | 122 nM | 80.3 nM |  |  | 
GGUGCGUAUGUGAGGAUAUGCUGGUCCUUGGGUCGGCAGAAGGCACAUGAGGAUCACCCAUGUGGUGUCGUUCC [salish99_Bmod_ex4_101] (puzzle: Brourd's mod of Exclusion 4) |  |  |  |  | 68 nM | 
GGUGCGUUUGUGAGGAUAUGCUGGUCCUUGGAUCGGCAGAAGGCACAUGAGGAUCACCCAUGUGGUGUCGUACC [salish99_Bmod_Ex4_035] (puzzle: Brourd's mod of Exclusion 4) |  |  |  |  | 280 nM | 
GGUGGACAUGAGGAUCACCCAUGUGAGGAUAUCGGCUAUCUUGUCGCUGUCGGUUGCUCGAGAAGGCACAUUGU [Exclusion 1 V95] (puzzle: Exclusion 1) |  |  |  |  | 69.2 nM | 
GGUGGGCUAGGAUAUGCUUUGGGCGGGCAUUCCUUCGAUAAACUUGAGGAUCACCCAAGUAGAAGGAGCUUGCC [salish99_ex2_r4_024] (Eterna round: R97, puzzle: Exclusion 2) | 16.2 nM | 12.3 nM |  |  |  | 
GGUUAUUGCAAGGAUAUGCUUUUUUUUUAUUUUGCAGAAGGUGCAACAUGAGGAUCACCCAUGUUGGAGGGUUU [JR_E6_Sub023] (puzzle: Exclusion 6) |  |  |  |  | 21.7 nM | 
GGUUGACAUGAGGAUCACCCAUGUGAGGAUAUGCGAGAGAAAAAAGUGAGGAAGUAAAGCAGAAGGCGCUGUCG [salish99-ex1_r3_004] (puzzle: Exclusion 1) |  |  |  | 51.6 nM | 200 nM | 449 nM
GGUUGACAUGAGGAUCACCCAUGUGAGGAUAUGCGAGAGAAAAAAGUGAGGAAGUUUAGCAGAAGGCGCUGUCG [salish99-ex1_r3_006] (puzzle: Exclusion 1) |  |  |  | 55.6 nM | 71 nM | 97.7 nM
GGUUGGCGAGGAUAUACAUGAGGAUCACCCAUGUGAGAAGAAAAAGUGAGGAAGAAAAGUAGAAGGCGCUGACG [Mat - Exclusion 3 - Mod of Salish D1] (puzzle: Exclusion 3) |  |  |  | 74 nM | 103 nM | 81.5 nM
GGUUGGCGAGGAUAUACAUGAGGAUCACCCAUGUGAGAGAAAAAACUGAGGAAGAAAAGUAGAAGGCGCUGACG [salish99_ex3_r3_026] (puzzle: Exclusion 3) |  |  |  | 117 nM | 23.4 nM | 35.5 nM
GGUUGGCGAGGAUAUACAUGAGGAUCACCCAUGUGAGAGAAAAAAGUGCGGAAGAAAAGUAGAAGGCGCUGACG [salish99_ex3_r3_029] (puzzle: Exclusion 3) |  |  |  | 82.7 nM | 25.1 nM | 25.7 nM
GGUUGGCGAGGAUAUACAUGAGGAUCACCCAUGUGAGAGAAUAAGUGAGGAAAGAAAAGUAGAAGGCGCUGACG [Mat - Exclusion 3 - Mod of Salish D52] (puzzle: Exclusion 3) |  |  |  | 117 nM | 44.5 nM | 55.1 nM
GGUUGGCGAGGAUAUACAUGAGGAUCACCCAUGUGAGGGAAAAAAGUGAGAACGAAAAGUAGAAGGCGCUGACG [salish99_ex3_r3_063] (puzzle: Exclusion 3) |  |  |  | 10.5 nM | 54 nM | 80.5 nM
GGUUGGCGAGGAUAUACAUGAGGAUCACCCAUGUGUGAGAAAAAAGUGAGGAAGAAAAGUAGAAGGCGCUGACG [salish99_ex3_r3_007] (puzzle: Exclusion 3) |  |  |  | 30.2 nM | 70.7 nM | 62.1 nM
GGUUGUCGAGGAUAUACUAGGGACCGAUCGAUCGGAACUUCACAUGAGGAUCACCCAUGUAGAAGGCGACAAUC [Eternabot (L1) Solution 57] (Eterna round: R97, puzzle: Exclusion 2) | 116 nM | 174 nM |  |  |  | 
